# Test results published in US12448434B2, “Antibodies specifically recognizing Pseudomonas PcrV and uses thereof” (priority 2019, dated 2025).
# Positions count from the first letter of the chain named.
# B1: 7B1: optimized anti-PcrV mAb clone; VH SEQ ID NO: 62, VL SEQ ID NO: 67 (antibody, V domains shown)
# VH: EVQLLESGGGLVQPGGSLRLSCTASGFTFSDNYMSWVRQAPGKGLDWVSVISESGGSTNYADSVKGRFSTSRDNSKSTLYLDMNSLRAEDTAIYYCAKGRFSTLSSHFFRAVYGMDVWGQGTAVTVSS
# VL: DIQLTQSPSSLSASVGDRVTITCRASQGISSYLAWYQQKPGKAPKLLIYAASTLQSGVPSRFSGSGSGTDFTLTISSLQPEDFATYYCQQLSSYPLTFGGGTKVEIK
# B2: 8C1: optimized anti-PcrV mAb clone; VH SEQ ID NO: 51, VL SEQ ID NO: 67 (antibody, V domains shown)
# VH: B1 VH with Y33H, V50G, L104N, S106A
# VL: B1 VL
# B3: 7C1: optimized anti-PcrV mAb clone; VH SEQ ID NO: 52, VL SEQ ID NO: 65 (antibody, V domains shown)
# VH: B1 VH with Y33H, V50G, L104S, F109Y
# VL: B1 VL with T97S
# System: P. aeruginosa (O6-57/66 strain)
# Test: Prophylactic acute pneumonia model in immunodeficient mice, survival
# Assay type: in vivo, BALB/c mice
# Conditions: cyclophosphamide-immunosuppressed mice; 3.2 to 5 mg/kg i.p. 24 h before infection; 1*LD90; 10 days
# Method: The ability of the optimized anti-PcrV antibodies 7C1, 7B1 and 8C1 to improve survival for acute pneumonia model in immunodeficient mice was evaluated in comparison to parental 13-42. HIV-10E8 was used as negative control. The acute pneumonia model in immunodeficient mice model was generated as described previously (DiGiandomenico et al., 2014, Sci. Transl. Med., 6: 262ra155).
# In a prophylactic model, to achieve immunosuppression, 7-8 week old BALB/c mice (Vital River Laboratory) were first administered 2 doses of 150 mg/kg of cyclophosphamide, at 4 days and 1 day before P. aeruginosa infection, to suppress white cell count. Antibodies were then administered intraperitoneally (i.p.) at 24 h before infection, at doses of 3.2 to 5 mg/kg mouse weight. To induce acute pneumonia, the BALB/c mice were intranasally inoculated with P. aeruginosa (O6-57/66 strain) suspended in a 40 μl inoculum at the lethal dose (1*LD90=[…]). Mouse survival was recorded for up to 10 days post-infection.
row,Molecule,survival improvement / protection relative to parental 13-42 antibody
1,B1,comparable or better protection than the parental 13-42 antibody
2,B2,comparable or better protection than the parental 13-42 antibody
3,B3,better survival improvement than the parental 13-42 antibody

# System: PcrV-negative A549 cells
# Test: Cross-reactivity to PcrV-negative A549 cells by FACS
# Assay type: cell-based, human
# Conditions: FIGS. 4A-4E, compared with no antibody and V2L2-MD
# Method: Cross-reactivity to A549 cells: Using FACS, parental antibody 13-42, optimized antibodies 7C1, 7B1, 8C1, 6D10 as well as V2L2-MD were tested for cross-reactivity to PcrV-negative A549 cells.
row,Molecule,binding to PcrV-negative A549 cells
1,B1,similarly low levels of A549 binding
2,B2,similarly low levels of A549 binding
3,B3,similarly low levels of A549 binding

# System: PcrV mutants (with mutations at position 225)
# Test: Binding to PcrV mutants with mutations at position 225
# Set-up: species or system Pseudomonas aeruginosa
# Conditions: data not shown
# Method: To further illustrate the optimized antibodies could broadly neutralize P. aeruginosa strains, the abilities of these antibodies to bind various forms of PcrV mutants were tested. Briefly, 100 PcrV sequences were randomly selected from Genebank database. In contrast to the wild type sequence as shown in SEQ ID No: 71, 13% of the selected sequences contained R, G, or K at position 225 (as compared of S in the wild type sequence SEQ No: 71), which was the main mutation around the epitope of 7B1.
# These findings further illustrate that the optimized anti-PcrV antibodies could neutralize a broad spectrum of P. aeruginosa strains, which might express various forms of PcrV mutants.
row,Molecule,"binding to PcrV mutants with R, G or K at position 225"
1,B1,strongly bind these mutants
2,B2,strongly bind these mutants
3,B3,strongly bind these mutants

# System: not given
# Test: not given
# Conditions: rat, in vivo, iv
# Method: Pharmacokinetic profile in rat: 40 healthy adult rats (about 0.2 kg by weight) were equally into two groups, where each group registered similar average weight. One group was injected intravenously with 30 mg/kg of V2L2-MD, 7C1, 7B1, 8C1 or 6D10 and the other group was injected intravenously with 3 mg/kg of V2L2-MD, 7C1, 7B1, 8C1 or 6D10. Blood was collected at […], and subsequently at 0 hour, 0.5 hour, 2 hour, 8 hour, 1 day, 3 days, 7 days, 11 days, 17 days, 23 days, 31 days, 41 days and 52 days after injection. After centrifugation, the plasma was used for analyzing antibody concentration using ELISA. For the ELISA experiment, synthetic PcrV was used to coat the wells of a 96-well plate. On the following day, after washing with PBST, blocking with 200 μL PBS-milk for an hour, and another wash with PBST, the plasma was added and incubated for an hour at 37° C. The plate was washed with 0.1% TBST for 6 times before 100 μL of Goat-anti-human Fc antibody-AP (1:3000 in PBS) was added to each well and incubated for an hour. After washing with 0.1% TBST for 6 times, 50 μL of pNPP was added to each well and color was developed for 10-20 minutes at 37° C. The signals were read by a microplate reader at 410 nm.
row,Molecule,half-lives relative to reference antibody V2L2-MD
1,B1,comparable to or longer than that of reference antibody V2L2-MD
2,B2,comparable to or longer than that of reference antibody V2L2-MD
3,B3,comparable to or longer than that of reference antibody V2L2-MD

# System: P. aeruginosa (PA103 strain)
# Test: Prophylactic mouse acute pneumonia model, organ burden
# Assay type: in vivo, BALB/c mice
# Conditions: 10 mg/kg i.p. 24 hr before infection; 0.5*LD90; FIG. 8B
# Method: In a prophylactic model, 7-8 week old BALB/c mice (Vital River Laboratory) were administered with antibodies or PBS intraperitoneally (i.p.) 24 hr before infection, at 10 mg/kg mouse weight. To induce acute pneumonia, the BALB/c mice were intranasally inoculated with P. aeruginosa (PA103 strain) suspended in a 40 μl inoculum at half the lethal dose (0.5*LD90; 3×10^5 CFU). 24 hours post-infection, mice were euthanized, where the lungs, spleens and kidneys were extracted, homogenized and diluted before plating on agar to measure the viable bacteria units (in CFU), which represented the P. aeruginosa burden in the respective organ sample.
Molecule,"reduction of organ burden in the lung, spleen and kidney relative to HIV-10E8","reduction of organ burden in the lung, spleen and kidney relative to V2L2-MD"
B1,higher efficacy in reducing organ burden,comparable efficacy in reducing organ burden
B2,higher efficacy in reducing organ burden,comparable efficacy in reducing organ burden
B3,higher efficacy in reducing organ burden,comparable efficacy in reducing organ burden

# System: P. aeruginosa strains O1-52/66, O16-177/81, and O6-57/66
# Test: RBC lysis inhibition assay, various strains (average)
# Assay type: cell-based, Pseudomonas aeruginosa
# Conditions: FIGS. 5A-5C
# Method: Monoclonal scFv antibodies were selected and assessed for biological activity by RBC lysis assay. Briefly, red blood cells (RBCs) were prepared from fresh whole human or rabbit blood by centrifugation, supplemented with EDTA and rinsed with multiple phosphate-buffered saline (PBS) washes. Washed RBCs (2.5% [vol/vol] final) in Dulbecco's modified Eagle's medium (DMEM) plus 10% fetal bovine serum (FBS) (Gibco) and purified anti-PcrV antibodies diluted in PBS were combined into wells of a round-bottom 96-well plate. Strain 57/66(O6) P. aeruginosa was grown to mid-log phase in 2× YT medium (Oxford), harvested by centrifugation, and resuspended in DMEM-fetal bovine serum (FBS) at an optical density at 600 nm (OD600) of 0.15. Ten microliters of bacterial suspension was added to the RBC-antibody mixture, mixed by agitation, and incubated for 3 hours at 37° C. and 5% CO2. The plates were briefly centrifuged (1000 rpm, 1 min) to pellet the intact RBCs, the supernatants transferred to a flat-bottom 96-well plate, and the OD405 was measured to detect any lysis, from which the relative amount of lysis inhibition was calculated and plotted. IC50 values for the antibodies were also determined.
# The optimized anti-PcrV mAb clones 7C1, 8C1, and 7B1 were further analyzed for their abilities to inhibit red blood cell lysis by various strains of P. aeruginosa, namely strains O1-52/66, O16-177/81, and O6-57/66, as compared to the parental 13-42 mAb and the reference antibody V2L2-MD. RBC lysis inhibition assay was performed as described in Example 1.
row,Molecule,"efficacy in inhibiting RBC lysis by strains O1-52/66, O16-177/81, O6-57/66 relative to V2L2-MD or parental 13-42 mAb"
1,B1,better efficacy in inhibiting RBC lysis
2,B2,better efficacy in inhibiting RBC lysis
3,B3,better efficacy in inhibiting RBC lysis

# System: P. aeruginosa (PA103 strain)
# Test: Therapeutic mouse acute pneumonia model, survival
# Assay type: in vivo, BALB/c mice
# Conditions: i.v. 1 h post-infection, 1 mg/kg or 10 mg/kg; 1*LD90; 6 days
# Method: In a therapeutic model, to induce acute pneumonia, 7-8 week old BALB/c mice (Vital River Laboratory) were intranasally inoculated with P. aeruginosa (PA103 strain) suspended in a 40 μl inoculum at a lethal dose (1*LD90=8×10^5 CFU). Antibodies or PBS were administered intravenously (i.v.) at 1 h post-infection, at a dose of 1 mg/kg or 10 mg/kg mouse weight. Mouse survival was recorded for up to 6 days post-infection.
row,Molecule,survival improvement relative to V2L2-MD
1,B1,survival improvement comparable to that of V2L2-MD
2,B2,survival improvement comparable to that of V2L2-MD
3,B3,survival improvement comparable to that of V2L2-MD
